Numbering of substitutions follows the chain as printed. Names may count otherwise.
B1: MTSP-1 H40R/I41H/F97T/ins97aE/T98G/F99L/C122S/Q175L/Q192E (enzyme)
chain: VVGGTDADEGEWPWQVSLHALGQGRHCGASLISPNWLVSAAHCYIDDRGFRYSDPTQWTAFLGLHDQSQRSAPGVQERRLKRIISHPFFNDTEGLDYDIALLELEKPAEYSSMVRPISLPDASHVFPAGKAIWVTGWGHTQYGGTGALILQKGEIRVINQTTCENLLPQLITPRMMCVGFLSGGVDSCEGDSGGPLSSVEADGRIFQAGVVSWGDGCAQRNKPGVYTRLPLFRDWIKENTGV
B2: MTSP-1 H40P/I41R/ins97aE/F97T/T98G/F99L/C122S/G151D/Q175L/Q192E (enzyme)
chain: B1 chain with R25P, H26R, G146D
B3: MTSP-1 K86R/F97T/ins97aE/T98G/F99L/K110R/C122S/K134R/K157R/Q175L/Q192E/K224R/K239R (enzyme)
chain: B1 chain with R25H, H26I, K81R, K106R, K130R, K152R, K222R, K237R
B4: MTSP-1 I41R/ins97aE/F97T/T98G/F99L/C122S/G151D/Q175T/Q192D (enzyme)
chain: B1 chain with R25H, H26R, G146D, L170T, E189D
B5: MTSP-1 I41R/ins97aE/F97T/T98G/F99L/C122S/G151D/Q175L/Q192E (enzyme)
chain: B1 chain with R25H, H26R, G146D
B6: MTSP-1 H40P/I41R/ins97aE/F97T/T98G/F99L/C122S/Q175L/Q192E (enzyme)
chain: B1 chain with R25P, H26R
B7: MTSP-1 I41R/ins97aE/F97T/T98G/F99L/C122S/G151E/Q175L/Q192E (enzyme)
chain: B1 chain with R25H, H26R, G146E
B8: MTSP-1 I41R/ins97aE/F97T/T98G/F99L/C122S/G151D/Q175T/Q192E (enzyme)
chain: B1 chain with R25H, H26R, G146D, L170T
B9: MTSP-1 H40R/I41H/F97E/ins97aE/T98G/F99L/C122S/Q175L/Q192G (enzyme)
chain: B1 chain with T92E, E189G
B10: MTSP-1 H40R/I41H/F97D/ins97aE/T98G/F99L/C122S/Q175L/Q192G (enzyme)
chain: B1 chain with T92D, E189G
B11: MTSP-1 I41R/ins97aE/F97T/T98G/F99L/C122S/G151E/Q175T/Q192D (enzyme)
chain: B1 chain with R25H, H26R, G146E, L170T, E189D
B12: MTSP-1 H40R/I41H/F97T/ins97aE/T98G/F99L/C122S/Q175L/Q192G (enzyme)
chain: B1 chain with E189G
B13: MTSP-1 I41R/ins97aE/F97T/T98G/F99L/C122S/G151N/Q175L/Q192E (enzyme)
chain: B1 chain with R25H, H26R, G146N
B14: MTSP-1 I41R/ins97aE/F97T/T98G/F99L/C122S/G151N/Q175L/Q192D (enzyme)
chain: B1 chain with R25H, H26R, G146N, E189D
B15: MTSP-1 K86R/K110R/C122S/K134R/K157R/K224R/K239R (enzyme)
chain: VVGGTDADEGEWPWQVSLHALGQGHICGASLISPNWLVSAAHCYIDDRGFRYSDPTQWTAFLGLHDQSQRSAPGVQERRLRRIISHPFFNDFTFDYDIALLELERPAEYSSMVRPISLPDASHVFPAGRAIWVTGWGHTQYGGTGALILQRGEIRVINQTTCENLLPQQITPRMMCVGFLSGGVDSCQGDSGGPLSSVEADGRIFQAGVVSWGDGCAQRNRPGVYTRLPLFRDWIRENTGV
B16: MTSP-1 H40R/I41H/F97D/F99L/C122S/G151N/Q175M/Q192A/D217N/K224R (enzyme)
chain: VVGGTDADEGEWPWQVSLHALGQGRHCGASLISPNWLVSAAHCYIDDRGFRYSDPTQWTAFLGLHDQSQRSAPGVQERRLKRIISHPFFNDDTLDYDIALLELEKPAEYSSMVRPISLPDASHVFPAGKAIWVTGWGHTQYGGTNALILQKGEIRVINQTTCENLLPQMITPRMMCVGFLSGGVDSCAGDSGGPLSSVEADGRIFQAGVVSWGNGCAQRNRPGVYTRLPLFRDWIKENTGV
B17: MTSP-1 H40K/I41M/F97D/F99L/C122S/Q175M/Q192D/D217N/K224R (enzyme)
chain: B16 chain with R25K, H26M, N145G, A188D
B18: MTSP-1 H40R/I41H/F97D/F99L/C122S/Q175R/Q192G/D217E/K224R (enzyme)
chain: B16 chain with N145G, M169R, A188G, N214E
B19: MTSP-1 H40R/I41H/F99L/C122S/G151K/Q192G (enzyme)
chain: B16 chain with D92F, N145K, M169Q, A188G, N214D, R221K
B20: MTSP-1 H40R/I41H/F97D/C122S/G133D/G151N (enzyme)
chain: B16 chain with L94F, G128D, M169Q, A188Q, N214D, R221K
B21: MTSP-1 H40R/I41H/F97D/F99L/C122S/G151N/L153R (enzyme)
chain: B16 chain with L147R, M169Q, A188Q, N214D, R221K
B22: MTSP-1 H40R/I41H/F97D/F99L/C122S/Q192G/D217K/K224A (enzyme)
chain: B16 chain with N145G, M169Q, A188G, N214K, R221A
B23: MTSP-1 H40K/I41M/F97D/F99L/C122S/Q175M/D217N/K224R (enzyme)
chain: B16 chain with R25K, H26M, N145G, A188Q
B24: MTSP-1 H40R/I41H/F97D/C122S/G151N/L153R/V202M (enzyme)
chain: B16 chain with L94F, L147R, M169Q, A188Q, V198M, N214D, R221K
B25: MTSP-1 H40R/I41H/F97D/C122S/G151N/L153R (enzyme)
chain: B16 chain with L94F, L147R, M169Q, A188Q, N214D, R221K
B26: MTSP-1 H40R/I41H/K86R/F97D/K110R/C122S/K134R/G151N/K157R/K224R/K239R (enzyme)
chain: B15 chain with H25R, I26H, F92D, G145N
B27: MTSP-1 H40P/I41R/F99L/C122S/Q192G (enzyme)
chain: B16 chain with R25P, H26R, D92F, N145G, M169Q, A188G, N214D, R221K
B28: MTSP-1 H40K/I41M/F97D/F99L/C122S/G151N/Q175M/Q192A/D217N/K224R (enzyme)
chain: B16 chain with R25K, H26M
B29: MTSP-1 H40R/I41H/F97D/F99L/C122S/Q175M/Q192D/D217N/K224R (enzyme)
chain: B16 chain with N145G, A188D
B30: MTSP-1 H40K/I41M/F99L/C122S/T150A/G151R/Q192G (enzyme)
chain: B16 chain with R25K, H26M, D92F, T144A, N145R, M169Q, A188G, N214D, R221K
B31: MTSP-1 H40R/I41H/F97D/F99L/C122S/G151N/Q192H (enzyme)
chain: B16 chain with M169Q, A188H, N214D, R221K
B32: MTSP-1 H40R/I41H/F97D/F99L/C122S/G151N/Q175L/Q192A/D217N/K224R (enzyme)
chain: B16 chain with M169L
B33: MTSP-1 H40P/I41R/F99L/C122S/G151K/Q192G (enzyme)
chain: B16 chain with R25P, H26R, D92F, N145K, M169Q, A188G, N214D, R221K
B34: MTSP-1 H40R/I41H/F97D/F99L/C122S/Q175M/D217N/K224R (enzyme)
chain: B16 chain with N145G, A188Q
B35: MTSP-1 H40R/I41H/F97D/F99L/C122S/Q175R/Q192G/D217H/K224S (enzyme)
chain: B16 chain with N145G, M169R, A188G, N214H, R221S
B36: MTSP-1 H40R/I41H/F97D/F99L/C122S/Q192G/D217I/K224S (enzyme)
chain: B16 chain with N145G, M169Q, A188G, N214I, R221S
B37: MTSP-1 H40K/I41M/F97D/F99L/C122S/G151N/Q175L/Q192A/D217N/K224R (enzyme)
chain: B16 chain with R25K, H26M, M169L
B38: MTSP-1 H40R/I41H/F97D/C122S/Q175R/Q192G/D217I/K224Q (enzyme)
chain: B16 chain with L94F, N145G, M169R, A188G, N214I, R221Q
B39: MTSP-1 H40R/I41H/F99L/C122S/G151E/Q192G (enzyme)
chain: B16 chain with D92F, N145E, M169Q, A188G, N214D, R221K
B40: MTSP-1 H40K/I41M/F97D/F99L/C122S/G151N/Q175M/Q192D/D217N/K224R (enzyme)
chain: B16 chain with R25K, H26M, A188D
B41: MTSP-1 H40R/I41H/F97D/F99L/C122S/G151N/Q192H/P232S (enzyme)
chain: B16 chain with M169Q, A188H, N214D, R221K, P229S
B42: MTSP-1 I41R/F99L/C122S/Q192G (enzyme)
chain: B16 chain with R25H, H26R, D92F, N145G, M169Q, A188G, N214D, R221K

target: plasma purified human complement protein C3 (human) (UniProt P01024); assay: cell-based or functional assay
Sequence (P01024 23-667, chain 1 of 2): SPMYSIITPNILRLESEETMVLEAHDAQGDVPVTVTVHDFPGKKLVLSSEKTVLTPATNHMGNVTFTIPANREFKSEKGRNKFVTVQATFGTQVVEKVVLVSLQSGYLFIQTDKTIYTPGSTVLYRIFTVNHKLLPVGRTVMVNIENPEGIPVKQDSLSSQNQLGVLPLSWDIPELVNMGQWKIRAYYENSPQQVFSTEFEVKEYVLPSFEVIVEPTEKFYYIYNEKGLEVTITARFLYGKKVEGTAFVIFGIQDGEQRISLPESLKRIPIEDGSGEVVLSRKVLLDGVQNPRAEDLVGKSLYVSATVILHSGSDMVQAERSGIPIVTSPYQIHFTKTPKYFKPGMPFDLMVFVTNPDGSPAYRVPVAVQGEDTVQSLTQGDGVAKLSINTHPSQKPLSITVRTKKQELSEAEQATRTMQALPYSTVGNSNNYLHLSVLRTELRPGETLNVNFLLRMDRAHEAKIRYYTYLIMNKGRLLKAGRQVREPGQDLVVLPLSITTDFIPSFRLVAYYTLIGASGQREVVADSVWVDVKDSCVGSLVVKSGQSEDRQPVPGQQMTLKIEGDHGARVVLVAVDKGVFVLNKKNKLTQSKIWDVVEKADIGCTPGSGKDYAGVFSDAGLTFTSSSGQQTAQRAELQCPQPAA
Sequence (P01024 672-1663, chain 2 of 2): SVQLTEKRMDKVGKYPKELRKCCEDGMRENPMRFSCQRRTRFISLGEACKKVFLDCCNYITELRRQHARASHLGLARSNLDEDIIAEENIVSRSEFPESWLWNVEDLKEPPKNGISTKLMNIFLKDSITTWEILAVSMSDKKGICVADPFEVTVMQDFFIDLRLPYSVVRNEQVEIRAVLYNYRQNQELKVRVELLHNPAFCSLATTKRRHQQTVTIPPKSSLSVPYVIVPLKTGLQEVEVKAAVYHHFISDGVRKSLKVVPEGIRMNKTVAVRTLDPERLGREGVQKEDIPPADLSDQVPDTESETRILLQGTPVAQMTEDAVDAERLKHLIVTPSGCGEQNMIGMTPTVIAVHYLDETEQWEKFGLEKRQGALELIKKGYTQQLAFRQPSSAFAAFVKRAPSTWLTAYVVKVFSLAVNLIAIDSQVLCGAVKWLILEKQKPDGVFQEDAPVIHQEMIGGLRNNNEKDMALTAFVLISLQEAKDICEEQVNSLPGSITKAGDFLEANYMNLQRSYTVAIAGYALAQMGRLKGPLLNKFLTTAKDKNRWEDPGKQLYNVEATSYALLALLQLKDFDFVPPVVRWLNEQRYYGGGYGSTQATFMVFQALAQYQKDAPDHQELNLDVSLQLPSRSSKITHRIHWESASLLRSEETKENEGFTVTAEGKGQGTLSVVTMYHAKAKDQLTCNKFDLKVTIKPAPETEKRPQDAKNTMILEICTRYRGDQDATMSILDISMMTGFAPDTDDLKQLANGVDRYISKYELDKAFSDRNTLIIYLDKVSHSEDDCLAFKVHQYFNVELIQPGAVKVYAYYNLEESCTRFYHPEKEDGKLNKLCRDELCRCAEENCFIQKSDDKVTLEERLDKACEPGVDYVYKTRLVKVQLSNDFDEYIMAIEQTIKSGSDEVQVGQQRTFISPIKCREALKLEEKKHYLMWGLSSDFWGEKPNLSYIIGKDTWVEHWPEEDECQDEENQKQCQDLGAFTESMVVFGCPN

| EC50 of hC3 cleavage | Binder |
| --- | --- |
| 5860 nM | B1 |
| 212 nM | B2 |
| 253 nM | B3 |
| 1620 nM | B4 |
| 163 nM | B5 |
| 442 nM | B6 |
| 126 nM | B7 |
| 743 nM | B8 |
| 82.4 nM | B9 |
| 39.7 nM | B10 |
| 1770 nM | B11 |
| 46 nM | B12 |
| 311 nM | B13 |
| 622 nM | B14 |
| 17.3 nM | B15 |
| 563 nM | B16 |
| 9.64 nM | B17 |
| 31.2 nM | B18 |
| 1520 nM | B19 |
| 60.4 nM | B20 |
| 59.9 nM | B21 |

| EC50 of hC3 cleavage | Binder |
| --- | --- |
| 23.4 nM | B22 |
| 144 nM | B23 |
| 103 nM | B24 |
| 126 nM | B25 |
| 304 nM | B26 |
| 62.4 nM | B27 |
| 1230 nM | B28 |
| 9990 nM | B29 |
| 110 nM | B30 |
| 179 nM | B31 |
| 540 nM | B32 |
| 96.1 nM | B33 |
| 103 nM | B34 |
| 45.2 nM | B35 |
| 19.3 nM | B36 |
| 1290 nM | B37 |
| 93.1 nM | B38 |
| 829 nM | B39 |
| 9.74 nM | B40 |
| 262 nM | B41 |
| 53.8 nM | B42 |

— patent publication US20240018502A1
